Experiments:
[1] = biological target: T1, mouse Glut12/Slc2a12 (Mus musculus, UniProt Q8BFW9); assay: [[…]-14C]-urate uptake in transiently transfected HEK293 cells; format: cell-based; details: 10 µM urate, Krebs-Ringer buffer, pH 5.4, 10 min; labelled compound
T1 construct: full-length wild-type ORF in pEGFP-N1, EGFP-tagged; transient expression in HEK293 cells
T1 sequence (Q8BFW9 1-622): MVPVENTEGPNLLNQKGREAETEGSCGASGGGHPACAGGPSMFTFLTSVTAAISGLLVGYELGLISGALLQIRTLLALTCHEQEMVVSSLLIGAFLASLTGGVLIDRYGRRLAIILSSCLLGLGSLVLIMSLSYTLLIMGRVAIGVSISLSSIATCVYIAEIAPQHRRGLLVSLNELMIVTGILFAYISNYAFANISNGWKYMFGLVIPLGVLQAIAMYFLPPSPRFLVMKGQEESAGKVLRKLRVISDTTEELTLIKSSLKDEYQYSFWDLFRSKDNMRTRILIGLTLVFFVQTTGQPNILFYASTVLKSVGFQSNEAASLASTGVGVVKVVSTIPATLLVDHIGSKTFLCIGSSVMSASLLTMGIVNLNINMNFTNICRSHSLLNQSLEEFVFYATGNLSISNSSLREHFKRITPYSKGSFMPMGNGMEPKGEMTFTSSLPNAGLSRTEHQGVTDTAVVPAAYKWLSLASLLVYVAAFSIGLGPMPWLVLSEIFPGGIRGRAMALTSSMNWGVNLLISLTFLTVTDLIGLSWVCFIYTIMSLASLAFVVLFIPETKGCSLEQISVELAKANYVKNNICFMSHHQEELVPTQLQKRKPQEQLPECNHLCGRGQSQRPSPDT

[2] = substrate: O=C1O[C@H]([C@@H](O)CO)C(O)=C1O; assay: cells, lysate or membranes; details: Krebs-Ringer buffer, pH 5.4, 37 °C, labelled compound

For `O=c1[nH]c(=O)c2[nH]c(=O)[nH]c2[nH]1` [urate], the “[8-14C]-urate uptake in transiently transfected HEK293 cells” value [1] was “cell-based urate uptake assays using human GLUT12- and mouse Glut12-expressing HEK293 cells were conducted”.

B1: human GLUT12/SLC2A12 (Homo sapiens) (protein)
chain: MVPVENTEGPSLLNQKGTAVETEGSGSRHPPWARGCGMFTFLSSVTAAVSGLLVGYELGIISGALLQIKTLLALSCHEQEMVVSSLVIGALLASLTGGVLIDRYGRRTAIILSSCLLGLGSLVLILSLSYTVLIVGRIAIGVSISLSSIATCVYIAEIAPQHRRGLLVSLNELMIVIGILSAYISNYAFANVFHGWKYMFGLVIPLGVLQAIAMYFLPPSPRFLVMKGQEGAASKVLGRLRALSDTTEELTVIKSSLKDEYQYSFWDLFRSKDNMRTRIMIGLTLVFFVQITGQPNILFYASTVLKSVGFQSNEAASLASTGVGVVKVISTIPATLLVDHVGSKTFLCIGSSVMAASLVTMGIVNLNIHMNFTHICRSHNSINQSLDESVIYGPGNLSTNNNTLRDHFKGISSHSRSSLMPLRNDVDKRGETTSASLLNAGLSHTEYQIVTDPGDVPAFLKWLSLASLLVYVAAFSIGLGPMPWLVLSEIFPGGIRGRAMALTSSMNWGINLLISLTFLTVTDLIGLPWVCFIYTIMSLASLLFVVMFIPETKGCSLEQISMELAKVNYVKNNICFMSHHQEELVPKQPQKRKPQEQLLECNKLCGRGQSRQLSPET
With B1 the Km ([2]; 5 min uptake) was 846 µM.

B2: mouse Glut12/Slc2a12 (Mus musculus) (protein)
chain: MVPVENTEGPNLLNQKGREAETEGSCGASGGGHPACAGGPSMFTFLTSVTAAISGLLVGYELGLISGALLQIRTLLALTCHEQEMVVSSLLIGAFLASLTGGVLIDRYGRRLAIILSSCLLGLGSLVLIMSLSYTLLIMGRVAIGVSISLSSIATCVYIAEIAPQHRRGLLVSLNELMIVTGILFAYISNYAFANISNGWKYMFGLVIPLGVLQAIAMYFLPPSPRFLVMKGQEESAGKVLRKLRVISDTTEELTLIKSSLKDEYQYSFWDLFRSKDNMRTRILIGLTLVFFVQTTGQPNILFYASTVLKSVGFQSNEAASLASTGVGVVKVVSTIPATLLVDHIGSKTFLCIGSSVMSASLLTMGIVNLNINMNFTNICRSHSLLNQSLEEFVFYATGNLSISNSSLREHFKRITPYSKGSFMPMGNGMEPKGEMTFTSSLPNAGLSRTEHQGVTDTAVVPAAYKWLSLASLLVYVAAFSIGLGPMPWLVLSEIFPGGIRGRAMALTSSMNWGVNLLISLTFLTVTDLIGLSWVCFIYTIMSLASLAFVVLFIPETKGCSLEQISVELAKANYVKNNICFMSHHQEELVPTQLQKRKPQEQLPECNHLCGRGQSQRPSPDT
B2 was tested, and the Km [2] was 1245 µM.
